The text below walks through data of US20250320284A1 (AC IMMUNE, published 2025).

In general, EC50 refers to the concentration giving half of the maximal effect. Read a low EC50 as greater potency. What is called koff is the rate constant with which the complex falls apart. A word on the kon: it is the second-order rate constant of association. A lower kon goes with slow association.

Test [1] deals with T1, human ASC (apoptosis associated speck-like protein containing a caspase-recruitment domain) (human, UniProt Q9ULZ3 1-195).
T1 construct: recombinant hASC in ELISA and SPR; endogenous ASC (cytoplasmic or specks) in Western blot and immunofluorescence; also called hASC; PYCARD
The test can be described thus: ELISA, coated hASC;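 further: antibody binding to plate-coated recombinant human ASC, read as phosphatase substrate absorbance, EC50 from four-parameter variable-slope fit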; ELISA on hASC protein. On the technique in general: An ELISA detects its analyte on a solid surface through an enzyme-linked reagent.

The target in test [2] is T1, human ASC (apoptosis associated …). As to the kind of experiment: SPR affinity mode, mAb captured; SPR affinity mode, mAb captured by Fc, hASC 2.2-180 nM in solution.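 Further: Single-cycle SPR kinetics with mAbs captured on goat anti-mouse antibody, double-referenced against blank flow cell and buffer cycle, fitted by a 1:1 kinetic model.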
The target is the same in test [3]. As to the kind of experiment: SPR avidity mode, ASC immobilized; SPR avidity mode, hASC covalently immobilized, mAb as analyte.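 Further: Single-cycle SPR kinetics on Biacore T200, antibodies injected at 1.2–100 nM (3-fold steps), 300 s association, 900 s dissociation, double-referenced, 1:1 kinetic model fit.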
For a further test, the target named is T2, CARD domain of human ASC (human, UniProt Q9ULZ3 107-195).
T2 construct: biotinylated in BLI; also called hCARD; human CARD
T2 sequence: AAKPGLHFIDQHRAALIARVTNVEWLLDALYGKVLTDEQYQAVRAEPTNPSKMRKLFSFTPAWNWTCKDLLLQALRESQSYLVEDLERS
The test can be described thus: ELISA, coated hCARD.

In a further test the target is T3, PYD domain of human ASC (human, UniProt Q9ULZ3 1-91, limits assumed).
T3 construct: biotinylated in BLI; His/MBP-tagged in the alanine ELISA; also called hPYD; human PYD
The test can be described thus: ELISA, coated hPYD.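 Further: monoclonal antibody binding to plate-coated human ASC PYD measured by ELISA, with a phosphatase substrate absorbance read-out and EC50 from a variable slope curve fit.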

Another test concerns the target T4, mouse ASC (mouse, UniProt Q9EPB4 1-193).
T4 construct: recombinant mASC in ELISA and SPR; endogenous ASC of J774.A1 cells in Western blot and immunofluorescence; also called mASC
T4 sequence: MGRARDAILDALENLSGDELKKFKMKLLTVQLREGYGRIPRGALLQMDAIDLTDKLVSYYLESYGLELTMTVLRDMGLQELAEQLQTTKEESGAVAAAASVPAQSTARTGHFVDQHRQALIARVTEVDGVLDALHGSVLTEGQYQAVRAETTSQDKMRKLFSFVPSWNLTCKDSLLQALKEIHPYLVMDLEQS
The test can be described thus: Western blot, J774.A1 mouse macrophage lysate.

For test [4], the target named is T1, human ASC (apoptosis associated …). As to the kind of experiment: SPR avidity mode, ASC immobilized.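 Further: Single-cycle SPR kinetics on Biacore T200, antibodies injected at 1.2–100 nM (3-fold steps), 300 s association, 900 s dissociation, double-referenced, 1:1 kinetic model fit.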
For test [5] the target is unchanged. As to the kind of experiment: SPR affinity mode, mAb captured.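 Further: Single-cycle SPR kinetics with mAbs captured on goat anti-mouse antibody, double-referenced against blank flow cell and buffer cycle, fitted by a 1:1 kinetic model.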
Test [6] shares this target. The test can be described thus: ELISA, coated hASC.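 Further: antibody binding to plate-coated recombinant human ASC, read as phosphatase substrate absorbance, EC50 from four-parameter variable-slope fit.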

T3 sequence (Q9ULZ3 1-91 limits assumed): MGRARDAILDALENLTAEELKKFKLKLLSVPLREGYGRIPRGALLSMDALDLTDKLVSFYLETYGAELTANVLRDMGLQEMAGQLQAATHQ

B1: ACI-8016-203B12C3-AB1 (antibody, V domains shown)
VH: QVQLKQSGPGLVQPSQSLSITCKVSDFSLSHYGVHWVRQSPGKGLEWLGVIWSGGTTEYNEAFISRLTISKDNSKSQILFRMNSLQPADTAIYYCARKGDFYGDYFDYWGQGTTLTVSS
VL: DIQMTQTSSSLSASLGDRVTISCRASQDISNYLNWYQQRPDGTVKLLIYYTSKVHSGVPSRFSGSGSGTDFSLTISNLEQEDFATYYCQQGNTRPFTFGGGTKLEIK
As to B1, the EC50 amounted to 0.1 nM in test [1] and 0.067 nM with CARD domain of human ASC. Besides, the values for the Kd in test [2] and in test [3] were 42 nM and 10.2 nM, respectively. In addition, the binding result in the test with PYD domain of human ASC was “no binding”.

B2: ACI-8016-413G10A5-AB1 (antibody, V domains shown)
VH: QVQLKESGPGLVAPSQSLSITCTVSGFSLTSYGVHWVRQPPGKGLEWLGVIWAGGSTNYNSALMSRLSISKDNSKSQVFLKMNSLQTADTAMYYCARWDYVNSYEAMDYWGQGTSVTVSS
VL: DVVMTQTPLSLPVSLGDQASISCRSSQSLVHSNGNTYLHWYLQKPGQSPKLLIYKVSNRFSGVPDRFSGSGSGTDFTLKISRVEAEDLGVYFCSQSTHVPYTFGGGTKLEIK
As to B2, the binding result in the test with mouse ASC and with PYD domain of human ASC was “no binding” in each case. For the same molecule, the values for the Kd in [4] and in [5] were 0.01 nM and 0.13 nM, respectively. For the same molecule, the results for the koff in [4] and in test [5] were 1.2e-06 s⁻¹ and 2.2e-05 s⁻¹, respectively. Moreover, the kon amounted to 92000 M⁻¹ s⁻¹ in [4] and 160000 M⁻¹ s⁻¹ in test [5]. Also, the 50% effective concentration (EC50) with CARD domain of human ASC worked out at 0.06 nM; in test [6], 0.05 nM.
